From patent US20240059799A1 (Pfizer, published 2024)

Biological target: T1, recombinant human TL1A (human, UniProt O95150 71-251)
T1 construct: The ELISA method says only 'recombinant TL1A' coated on plates; homotrimeric cytokine; also called TNFSF15; recombinant TL1A
T1 chain: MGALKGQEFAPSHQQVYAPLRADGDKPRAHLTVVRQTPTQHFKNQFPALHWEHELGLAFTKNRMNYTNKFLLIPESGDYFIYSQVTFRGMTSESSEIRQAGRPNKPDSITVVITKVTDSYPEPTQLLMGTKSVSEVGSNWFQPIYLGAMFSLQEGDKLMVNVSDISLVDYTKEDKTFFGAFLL
Test: competition ELISA on coated recombinant TL1A; competitor biotinylated TL1A-0002
Protocol: For this competition ELISA assay procedure, 96-well high binding plates (Corning, product number 3590) were coated with 1 μg/mL recombinant TL1A in 100 μL/well in Phospate Buffered Saline (PBS) overnight at 4° C. Plates were then blocked in PBS+0.02% casein solution and washed with PBS+0.05% Tween-20 following standard ELISA protocol. […] Plates were washed with PBS+0.05% Tween-20 following standard ELISA protocol, and Streptavidin-HRP (Southern Biotech, product number 7100-05) diluted to 1:10,000 in assay buffer was added to plates and incubated for 25-30 minutes at room temperature. Next, the plates were washed with PBS+0.05% Tween-20 following standard ELISA protocol, and then TMB substrate (BioFX Laboratories, catalog number TMBW-0100-01) was added to plates. Reactions were stopped after approximately 5 minutes by adding 0.18 M ortho-phosphoric acid to each well and absorbance was read at 450 nm.

B1: TL1A-0269 (antibody, V domains shown)
VH: QVQLVQSGAEVKKPGASVKVSCKASGYDYTYYGISWVRQAPGQGLEWMGWISTYGGNTHYAPSLQGRVTMTTDTSTSTAYMELRSLRSDDTAVYYCARESYYGSGAHRGGMDVWGQGTTVTVSS
VL: DIQMTQSPSSLSASVGDRVTITCRASQSVSSYLAWYQQKPGKAPKLLIYDASNRATGVPSRFSGSGSGTDFTLTISSLQPEDFATYYCQQRSNWPWTFGQGTKVEIKR
notes: IgG1 effector-minimized/kappa
Bioactivity relative to TL1A-0002: 7.5 fold
IC50: 37.7 nM

B2: TL1A-0286 (antibody, human IgG1, kappa, V domains shown)
VH: QVQLVQSGAEVKKPGASVKVSCKASGYDFTYYGVSWVRQAPGQGLEWMGWISTYNDNTHYAQKLQGRVTMTTDTSTSTAYMELRSLRSDDTAVYYCARESYYGSGAFRGGMDVWGQGTTVTVSS
VL: DIQMTQSPSSLSASVGDRVTITCRASQSVSSYLAWYQQKPGKAPKLLIYDASNRATGVPSRFSGSGSGTDFTLTISSLQPEDFATYYCQQRSNWPWTFGQGTKVEIKR
notes: human IgG1 effector-function-minimized / human kappa
Bioactivity relative to TL1A-0002: 2.3 fold
IC50: 11.6 nM

B3: TL1A-0279 (antibody, human IgG1, kappa, V domains shown)
VH: QVQLVQSGAEVKKPGASVKVSCKASGYDFSYYGISWVRQAPGQGLEWMGWISTYNTVTHYAPSLQGRVTMTTDTSTSTAYMELRSLRSDDTAVYYCARESYYGSGAHRGGMDVWGQGTTVTVSS
VL: DIQMTQSPSSLSASVGDRVTITCRASQSVSSYLAWYQQKPGKAPKLLIYDASNRATGVPSRFSGSGSGTDFTLTISSLQPEDFATYYCQQRSNWPWTFGQGTKVEIKR
notes: as for B2
Bioactivity relative to TL1A-0002: 2.1 fold
IC50: 10.5 nM

B4: TL1A-0285 (antibody, human IgG1, kappa, V domains shown)
VH: QVQLVQSGAEVKKPGASVKVSCKASGYDFTYYGVSWVRQAPGQGLEWMGWISTYNDNTHYAPSLQGRVTMTTDTSTSTAYMELRSLRSDDTAVYYCARESYYGSGAHRGGMDVWGQGTTVTVSS
VL: DIQMTQSPSSLSASVGDRVTITCRASQSVSSYLAWYQQKPGKAPKLLIYDASNRATGVPSRFSGSGSGTDFTLTISSLQPEDFATYYCQQRSNWPWTFGQGTKVEIKR
notes: as for B2
Bioactivity relative to TL1A-0002: 1.7 fold
IC50: 8.6 nM

B5: TL1A-0277 (antibody, human IgG1, kappa, V domains shown)
VH: QVQLVQSGAEVKKPGASVKVSCKASGYDFSYYGISWVRQAPGQGLEWMGWISTYNTGTHYAQKLQGRVTMTTDTSTSTAYMELRSLRSDDTAVYYCARESYYGSGAHRGGMDVWGQGTTVTVSS
VL: DIQMTQSPSSLSASVGDRVTITCRASQSVSSYLAWYQQKPGKAPKLLIYDASNRATGVPSRFSGSGSGTDFTLTISSLQPEDFATYYCQQRSNWPWTFGQGTKVEIKR
notes: as for B2
Bioactivity relative to TL1A-0002: 2 fold
IC50: 10.2 nM

B6: TL1A-0284 (antibody, human IgG1, kappa, V domains shown)
VH: QVQLVQSGAEVKKPGASVKVSCKASGYDFTYYGVSWVRQAPGQGLEWMGWISTYNDNTHYAPSLQGRVTMTTDTSTSTAYMELRSLRSDDTAVYYCARESYYGSGAFRGGMDVWGQGTTVTVSS
VL: DIQMTQSPSSLSASVGDRVTITCRASQSVSSYLAWYQQKPGKAPKLLIYDASNRATGVPSRFSGSGSGTDFTLTISSLQPEDFATYYCQQRSNWPWTFGQGTKVEIKR
notes: as for B2
Bioactivity relative to TL1A-0002: 2 fold
IC50: 10.3 nM

B7: TL1A-0281 (antibody, human IgG1, kappa, V domains shown)
VH: QVQLVQSGAEVKKPGASVKVSCKASGYDFSYYGISWVRQAPGQGLEWMGWISTYNTNTHYAPSLQGRVTMTTDTSTSTAYMELRSLRSDDTAVYYCARESYYGSGAHRGGMDVWGQGTTVTVSS
VL: DIQMTQSPSSLSASVGDRVTITCRASQSVSSYLAWYQQKPGKAPKLLIYDASNRATGVPSRFSGSGSGTDFTLTISSLQPEDFATYYCQQRSNWPWTFGQGTKVEIKR
notes: as for B2
Bioactivity relative to TL1A-0002: 2.6 fold
IC50: 13.1 nM

B8: TL1A-0283 (antibody, V domains shown)
VH: QVQLVQSGAEVKKPGASVKVSCKASGYDFSYYGISWVRQAPGQGLEWMGWISTYGGNTHYAPSLQGRVTMTTDTSTSTAYMELRSLRSDDTAVYYCARESYYGSGAHRGGMDVWGQGTTVTVSS
VL: DIQMTQSPSSLSASVGDRVTITCRASQSVSSYLAWYQQKPGKAPKLLIYDASNRATGVPSRFSGSGSGTDFTLTISSLQPEDFATYYCQQRSNWPWTFGQGTKVEIKR
notes: IgG1 effector-minimized/kappa
Bioactivity relative to TL1A-0002: 48.9 fold
IC50: 246 nM

B9: TL1A-0276 (antibody, human IgG1, kappa, V domains shown)
VH: QVQLVQSGAEVKKPGASVKVSCKASGYDFSYYGISWVRQAPGQGLEWMGWISTYNTGTHYAQKLQGRVTMTTDTSTSTAYMELRSLRSDDTAVYYCARESYYGSGAFRGGMDVWGQGTTVTVSS
VL: DIQMTQSPSSLSASVGDRVTITCRASQSVSSYLAWYQQKPGKAPKLLIYDASNRATGVPSRFSGSGSGTDFTLTISSLQPEDFATYYCQQRSNWPWTFGQGTKVEIKR
notes: as for B2
Bioactivity relative to TL1A-0002: 2.1 fold
IC50: 10.6 nM

B10: TL1A-0273 (antibody, human IgG1, kappa, V domains shown)
VH: QVQLVQSGAEVKKPGASVKVSCKASGYDFSYYGISWVRQAPGQGLEWMGWISTYNDNTHYAQKLQGRVTMTTDTSTSTAYMELRSLRSDDTAVYYCARESYYGSGAHRGGMDVWGQGTTVTVSS
VL: DIQMTQSPSSLSASVGDRVTITCRASQSVSSYLAWYQQKPGKAPKLLIYDASNRATGVPSRFSGSGSGTDFTLTISSLQPEDFATYYCQQRSNWPWTFGQGTKVEIKR
notes: as for B2
Bioactivity relative to TL1A-0002: 2.2 fold
IC50: 10.9 nM

B11: TL1A-0280 (antibody, human IgG1, kappa, V domains shown)
VH: QVQLVQSGAEVKKPGASVKVSCKASGYDFSYYGISWVRQAPGQGLEWMGWISTYNTNTHYAPSLQGRVTMTTDTSTSTAYMELRSLRSDDTAVYYCARESYYGSGAFRGGMDVWGQGTTVTVSS
VL: DIQMTQSPSSLSASVGDRVTITCRASQSVSSYLAWYQQKPGKAPKLLIYDASNRATGVPSRFSGSGSGTDFTLTISSLQPEDFATYYCQQRSNWPWTFGQGTKVEIKR
notes: as for B2
Bioactivity relative to TL1A-0002: 1.6 fold
IC50: 8.2 nM

B12: TL1A-0275 (antibody, human IgG1, kappa, V domains shown)
VH: QVQLVQSGAEVKKPGASVKVSCKASGYDFSYYGISWVRQAPGQGLEWMGWISTYNTGTHYAPSLQGRVTMTTDTSTSTAYMELRSLRSDDTAVYYCARESYYGSGAHRGGMDVWGQGTTVTVSS
VL: DIQMTQSPSSLSASVGDRVTITCRASQSVSSYLAWYQQKPGKAPKLLIYDASNRATGVPSRFSGSGSGTDFTLTISSLQPEDFATYYCQQRSNWPWTFGQGTKVEIKR
notes: as for B2
Bioactivity relative to TL1A-0002: 1.8 fold
IC50: 9 nM

B13: TL1A-0274 (antibody, human IgG1, kappa, V domains shown)
VH: QVQLVQSGAEVKKPGASVKVSCKASGYDFSYYGISWVRQAPGQGLEWMGWISTYNTGTHYAPSLQGRVTMTTDTSTSTAYMELRSLRSDDTAVYYCARESYYGSGAFRGGMDVWGQGTTVTVSS
VL: DIQMTQSPSSLSASVGDRVTITCRASQSVSSYLAWYQQKPGKAPKLLIYDASNRATGVPSRFSGSGSGTDFTLTISSLQPEDFATYYCQQRSNWPWTFGQGTKVEIKR
notes: as for B2
Bioactivity relative to TL1A-0002: 2 fold
IC50: 10.1 nM

B14: TL1A-0282 (antibody, V domains shown)
VH: QVQLVQSGAEVKKPGASVKVSCKASGYDFSYYGISWVRQAPGQGLEWMGWISTYGGNTHYAPSLQGRVTMTTDTSTSTAYMELRSLRSDDTAVYYCARESYYGSGAFRGGMDVWGQGTTVTVSS
VL: DIQMTQSPSSLSASVGDRVTITCRASQSVSSYLAWYQQKPGKAPKLLIYDASNRATGVPSRFSGSGSGTDFTLTISSLQPEDFATYYCQQRSNWPWTFGQGTKVEIKR
notes: IgG1 effector-minimized/kappa
Bioactivity relative to TL1A-0002: 10.3 fold
IC50: 52.1 nM

B15: TL1A-0270 (antibody, human IgG1, kappa, V domains shown)
VH: QVQLVQSGAEVKKPGASVKVSCKASGYDFSYYGISWVRQAPGQGLEWMGWISTYNDNTHYAPSLQGRVTMTTDTSTSTAYMELRSLRSDDTAVYYCARESYYGSGAFRGGMDVWGQGTTVTVSS
VL: DIQMTQSPSSLSASVGDRVTITCRASQSVSSYLAWYQQKPGKAPKLLIYDASNRATGVPSRFSGSGSGTDFTLTISSLQPEDFATYYCQQRSNWPWTFGQGTKVEIKR
notes: as for B2
Bioactivity relative to TL1A-0002: 2.3 fold
IC50: 11.5 nM

B16: TL1A-0272 (antibody, human IgG1, kappa, V domains shown)
VH: QVQLVQSGAEVKKPGASVKVSCKASGYDFSYYGISWVRQAPGQGLEWMGWISTYNDNTHYAQKLQGRVTMTTDTSTSTAYMELRSLRSDDTAVYYCARESYYGSGAFRGGMDVWGQGTTVTVSS
VL: DIQMTQSPSSLSASVGDRVTITCRASQSVSSYLAWYQQKPGKAPKLLIYDASNRATGVPSRFSGSGSGTDFTLTISSLQPEDFATYYCQQRSNWPWTFGQGTKVEIKR
notes: as for B2
Bioactivity relative to TL1A-0002: 2.3 fold
IC50: 11.6 nM

B17: TL1A-0271 (antibody, human IgG1, kappa, V domains shown)
VH: QVQLVQSGAEVKKPGASVKVSCKASGYDFSYYGISWVRQAPGQGLEWMGWISTYNDNTHYAPSLQGRVTMTTDTSTSTAYMELRSLRSDDTAVYYCARESYYGSGAHRGGMDVWGQGTTVTVSS
VL: DIQMTQSPSSLSASVGDRVTITCRASQSVSSYLAWYQQKPGKAPKLLIYDASNRATGVPSRFSGSGSGTDFTLTISSLQPEDFATYYCQQRSNWPWTFGQGTKVEIKR
notes: as for B2
Bioactivity relative to TL1A-0002: 2.1 fold
IC50: 10.6 nM

B18: TL1A-0278 (antibody, human IgG1, kappa, V domains shown)
VH: QVQLVQSGAEVKKPGASVKVSCKASGYDFSYYGISWVRQAPGQGLEWMGWISTYNTVTHYAPSLQGRVTMTTDTSTSTAYMELRSLRSDDTAVYYCARESYYGSGAFRGGMDVWGQGTTVTVSS
VL: DIQMTQSPSSLSASVGDRVTITCRASQSVSSYLAWYQQKPGKAPKLLIYDASNRATGVPSRFSGSGSGTDFTLTISSLQPEDFATYYCQQRSNWPWTFGQGTKVEIKR
notes: as for B2
Bioactivity relative to TL1A-0002: 1.8 fold
IC50: 9.1 nM
